IntAct's records for PubMed 19955405

B1: Serine/threonine-protein kinase SRK2E (Arabidopsis thaliana (Mouse-ear cress)), Q940H6 (parent)
chain: MDRPAVSGPMDLPIMHDSDRYELVKDIGSGNFGVARLMRDKQSNELVAVKYIERGEKIDENVKREIINHRSLRHPNIVRFKEVILTPTHLAIVMEYASGGELFERICNAGRFSEDEARFFFQQLISGVSYCHAMQVCHRDLKLENTLLDGSPAPRLKICDFGYSKSSVLHSQPKSTVGTPAYIAPEVLLKKEYDGKVADVWSCGVTLYVMLVGAYPFEDPEEPKNFRKTIHRILNVQYAIPDYVHISPECRHLISRIFVADPAKRISIPEIRNHEWFLKNLPADLMNDNTMTTQFDESDQPGQSIEEIMQIIAEATVPPAGTQNLNHYLTGSLDIDDDMEEDLESDLDDLDIDSSGEIVYAM
partner: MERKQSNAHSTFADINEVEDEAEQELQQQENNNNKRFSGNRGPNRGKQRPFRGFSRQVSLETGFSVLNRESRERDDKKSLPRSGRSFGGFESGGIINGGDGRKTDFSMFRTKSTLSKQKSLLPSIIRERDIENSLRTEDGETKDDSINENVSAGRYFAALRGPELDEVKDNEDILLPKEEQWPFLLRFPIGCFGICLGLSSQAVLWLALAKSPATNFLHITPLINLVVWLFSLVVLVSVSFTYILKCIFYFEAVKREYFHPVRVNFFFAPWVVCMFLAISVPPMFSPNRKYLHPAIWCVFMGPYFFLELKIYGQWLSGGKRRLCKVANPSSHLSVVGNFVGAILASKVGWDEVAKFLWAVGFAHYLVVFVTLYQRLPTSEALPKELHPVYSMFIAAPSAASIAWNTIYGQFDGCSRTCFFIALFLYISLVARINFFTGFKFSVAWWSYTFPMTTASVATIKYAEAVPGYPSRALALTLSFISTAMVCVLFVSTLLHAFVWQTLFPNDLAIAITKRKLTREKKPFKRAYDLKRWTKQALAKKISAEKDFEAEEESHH

Variants of: B1
Details: with slac1_arath SLAC1, Q9LD83

Variant	effect of a mutation on the interaction
MDRPAVSGPMDLPIMHDSDRYELVKDIGSGNFGVARLMRDKQSNELVAVKYIERGEKIDENVKREIINHRSLRHPNIVRFKEVILTPTHLAIVMEYASGGELFERICNAGRFSEDEARFFFQQLISGVSYCHAMQVCHRALKLENTLLDGSPAPRLKICDFGYSKSSVLHSQPKSTVGTPAYIAPEVLLKKEYDGKVADVWSCGVTLYVMLVGAYPFEDPEEPKNFRKTIHRILNVQYAIPDYVHISPECRHLISRIFVADPAKRISIPEIRNHEWFLKNLPADLMNDNTMTTQFDESDQPGQSIEEIMQIIAEATVPPAGTQNLNHYLTGSLDIDDDMEEDLESDLDDLDIDSSGEIVYAM [D140A]	disrupting interaction
